Data as given in PMC13077772 (2025).

Molecular target: melanoma-associated antigen 3 (MAGE-A3) peptide presented by HLA-A*01:01 (human | )
Assay: SPR

B1: mage-513, purified soluble protein (designed binder)
chain: LTVEEAIRLLLETQRRYPELGPEERQVADGALRVASLLLDIIATRRLLGDDDKELEKQLLKRIERLFTAPLPERRRLVEELEEPVLEEAAQAARELVKREQQ
modifications: heavy chain HLA-A*01:01 ectodomain taken by convention from the MAGE-A3/HLA-A1 structure 5BRZ (candidate P04439 is a different allele, A*03:01)
Kd: 29 nM
